Tests used:
MERS RBD-hFc [1] = molecular target: T1, MERS RBD-hFc (MERS-CoV (isolate EMC/2012)); assay: SPR Biacore, captured mAb, 25 C
MERS RBD-hFc [2] = molecular target: T1, MERS RBD-hFc; assay: SPR (Biacore), hybridoma supernatant antibody captured, MERS RBD-hFc as analyte
MERS RBD-hFc [3] = molecular target: T1, MERS RBD-hFc; assay: SPR Biacore, captured mAb, 37 C
MERS RBD-hFc [4] = molecular target: T1, MERS RBD-hFc; assay: ELISA on coated MERS RBD-hFc, hybridoma supernatant 1:50, absorbance at 450 nm

Binder	Kd (MERS RBD-hFc [1])	koff (MERS RBD-hFc [1])	kon (MERS RBD-hFc [1])	t1/2 (MERS RBD-hFc [1])	Kd (MERS RBD-hFc [2])	t½ (MERS RBD-hFc [2])	Kd (MERS RBD-hFc [3])	koff (MERS RBD-hFc [3])	kon (MERS RBD-hFc [3])	t1/2 (MERS RBD-hFc [3])	ELISA Binding (MERS RBD-hFc [4])
H1M15277N (antibody, V domains shown) V domain 1: EVQLLESGGGLVQPGGSLRLSCAASGFTFSSYAMSWVRQAPGKGLEWVSAISGRGGNTYYADSVKGRFTISRDNSKNTLFLQMNTLRAEDTAVYYCAKDRGFGFFDIWGRGTLATVSS V domain 2: not shown	0.346 nM	0.00091 s⁻¹	2.63e+06 M⁻¹ s⁻¹	13 min	1.72 nM	11.1 min	0.671 nM	0.00218 s⁻¹	3.24e+06 M⁻¹ s⁻¹	5 min	2.68
H1H15208P (antibody, V domains shown) VH: EVQLVESGGDLVQPGGSLRLSCTASGFTFSNYEMNWVRQAPEKGLDWVSFISSSGGAIYYADSVKGRFTISRDNAKNSLYLQMNSLRAEDSAIYFCARSDSGGNSRYWGQGTLVTVSS VL: DIQMTQSPSSVSASVGDRVTVTCRASQDISNWLVWYQQKPGKAPKFLIYAASSLQSGVPSRFSGSGSGTDFTLTISSLQPEDFATYYCQQANSFPPTFGGGTKVEIK	0.553 nM	0.000243 s⁻¹	439000 M⁻¹ s⁻¹	48 min	–	–	1.01 nM	0.000531 s⁻¹	525000 M⁻¹ s⁻¹	22 min	–
H1H15215P (antibody, V domains shown) VH: EVQLVESGGGLVQPGGSLRLSCAASGFTFSTYGMSWVRQAPGKGLEWVSTIIGSGYNTYYSDSVKGRFTMSRDNSKSTLYLQMNSLRAEDTAVYYCTKEGPIIGTTNWGQGTLVTVSS VL: not shown	0.671 nM	9.67e-05 s⁻¹	144000 M⁻¹ s⁻¹	119 min	–	–	1.68 nM	0.000233 s⁻¹	138000 M⁻¹ s⁻¹	50 min	–
H1H15237P2 (antibody, V domains shown) VH: EVQLVESGGGLVQPGGSLRLSCAASGFTSNSYPMSWVRQAPGKGLEWVSGISGRGGNTYYADSVKGRFTISRDNSKNTLYLQMNSLRVEDTAVYYCAETGTAFDYWGQGTLVTVSS VL: not shown	0.274 nM	0.00012 s⁻¹	439000 M⁻¹ s⁻¹	96 min	–	–	0.797 nM	0.000409 s⁻¹	514000 M⁻¹ s⁻¹	28 min	–
H1H15177P (antibody, V domains shown) VH: EVQLVESGGGLVQPGGSLRLSCSASGFTFSSYDMSWVRQAPGKGLEWVSAIRGSGHTTYYADSVKGRFTISRDNSKNTLYLEMNSLRAEDTAVYYCVKDGSIVGFDPWGQGTLVTVSS VL: not shown	0.39 nM	0.000192 s⁻¹	493000 M⁻¹ s⁻¹	60 min	–	–	1.23 nM	0.000701 s⁻¹	568000 M⁻¹ s⁻¹	16 min	–
H2aM15270N (antibody, V domains shown) VH: EVQLLESGGGLEQPGGSLRLSCAASGFTFSSYAMIWVRQAPGKGLEWVSTISGSGVNTYYADSVKGRFTISRDNSKNTLHLQMNSLRAEDTAVYHCAKEGLDCANGVCYNYYGMDVWGQGTTVTVSS VL: DIQMTQSPSSLSASVGDRVTITCRASQSINSFLNWYHQKPGKAPKFLIYSASNLQSGVPSRFSGSGSGTDFTLTISSLQPEDFSTYYCQQSYSIPLTFGGGTKVEIK	0.776 nM	0.000605 s⁻¹	779000 M⁻¹ s⁻¹	19 min	1.79 nM	17.3 min	0.651 nM	0.00114 s⁻¹	1.75e+06 M⁻¹ s⁻¹	10 min	2.04
H1H15231P2 (antibody, V domains shown) VH: QLQLQESGPGLVKPSETLSLTCTVSGGSISSNTYYWGWIRQPPGKGLEWIGTIYYTGNTYYKSSLKSRVTISVDTSRNQFSLKLTSVTAADTAVYYCARQFADLNYVDYWGQGTLVTVSS VL: not shown	0.116 nM	7.44e-05 s⁻¹	639000 M⁻¹ s⁻¹	155 min	–	–	0.139 nM	9.19e-05 s⁻¹	659000 M⁻¹ s⁻¹	126 min	–
H1H15211P (antibody, V domains shown) VH: EVQLVESGGGLVQPGGSLRLSCVVSGFTFSNYDMSWVRQAPGRGLEWVSAIRGSGFNTYYADSVKGRFTISRDNSKNTLYLQMNSLRAEDTAVYYCAKDGSIVSMDYWGQGTLVTVSS VL: not shown	0.0775 nM	8.72e-05 s⁻¹	1.13e+06 M⁻¹ s⁻¹	133 min	–	–	0.194 nM	0.00016 s⁻¹	827000 M⁻¹ s⁻¹	72 min	–
H1H15228P2 (antibody, V domains shown) VH: EVQLVESGGGLVQPGGSLRLSCAVFGFTFSGYAMSWVRQAPGKGLEWVSAISGGGGSTYYTDSVKGRFTISRDNSKNTLYLQMNSLRAEDTAVYYCASYWNNGMDVWGQGTTVTVSS VL: not shown	0.418 nM	0.000185 s⁻¹	443000 M⁻¹ s⁻¹	63 min	–	–	0.975 nM	0.000464 s⁻¹	476000 M⁻¹ s⁻¹	25 min	–
H1M15280N (antibody, V domains shown) VH: EVQLLESGGGLVQPGGSLRLSCAASGFTFSSYAMSWVRQAPGKGLEWVSAISGSGSSTYYADSVKGRFTISRDNSKNTLFLQMNSLRAEDTAVYYCAEGGDVDFDYWGQGTLVTVSS VL: not shown	18.5 nM	0.00525 s⁻¹	283000 M⁻¹ s⁻¹	2.2 min	6.53 nM	7.4 min	13.2 nM	0.00657 s⁻¹	497000 M⁻¹ s⁻¹	1.8 min	2.75
H2aM15278N (antibody, V domains shown) VH: QVQLVQSGAEVKKPGASVKVSCKASGYTFTSHGISWVRQAPGQGFEWMGWIGTYNSNTDYAQNFQGRVTMTTDTSTSTAYMELRNLRSDDTAVYYCARERGPYYGMDVWGQGTTVTVSS VL: EIVLAQSPGTLSLSPGERATLSCRASQSVNSNYLAWYQQKPGQAPRLLIYGASSRATGIPDRFSGSGSGTDFTLTISRLEPEDFAVYYCQQYGNSLTFGPGTKVDFK	0.506 nM	0.000873 s⁻¹	1.72e+06 M⁻¹ s⁻¹	13 min	2.05 nM	13.5 min	0.519 nM	0.00113 s⁻¹	2.17e+06 M⁻¹ s⁻¹	10 min	2.42
H1H15249P2 (antibody, V domains shown) VH: QLQLQESGPGLVKPSETLSLTCTVSGGSISNNNYYWGWIRQPPGKGLDWIGSIYYSGNTYYNPSLKSRVTISVDTSKNQFSLKMSSVTATDTALYYCARQGADHNWVDPWGQGTLVTVSS VL: not shown	0.227 nM	7.91e-05 s⁻¹	349000 M⁻¹ s⁻¹	146 min	–	–	0.288 nM	0.000127 s⁻¹	442000 M⁻¹ s⁻¹	91 min	–
H1H15188P (antibody, V domains shown) VH: QVQLVQSGAEVKKPGSSVKVSCKASGGSFSVYAISWVRQAPGQGLEWMGGIIPIFGTANYAQKFQDRFTITTDESTSTAYMELSSLRSEDTAMYYCAREGDIVVLPAGKGGMDVWGQGTTVTVSS VL: DIVMTQSPLSLPVTPGEPASISCRSSQSLLHGNGYNYLDWYLQKPGQSPQLLIYLVSHRASGVPDRFSGSGSGTDFTLKISRVEAEDVGVYYCMQALQSPWTFGQGTKVEIK	0.0825 nM	0.000122 s⁻¹	1.48e+06 M⁻¹ s⁻¹	95 min	–	–	0.167 nM	0.000265 s⁻¹	1.59e+06 M⁻¹ s⁻¹	44 min	–
H2aM15281N (antibody, V domains shown) VH: QVQLVQSGAEVKKPGSSVKVSCKASKDTFSSYAISWVRQAPGQGLEWMGGIIPFFGTTTYEQKFQGRVTITTDESTRTAYMELSSLRSEDSAVYYCARDRPCISSAGTRYHYCVMDVWGQGTTVTVSS VL: not shown	0.39 nM	0.000818 s⁻¹	2.1e+06 M⁻¹ s⁻¹	14 min	2.77 nM	10.4 min	0.213 nM	0.000543 s⁻¹	2.55e+06 M⁻¹ s⁻¹	21 min	2.54
H2aM15272N (antibody, V domains shown) VH: QVRLVQSGAEVKKPGSSVKVSCKASGDTFSSYAISWVRQAPGQGLEWMGGIIPFFVTTTYAQNFQGRVTITTDESTRTAYMELSSLRSEDSAVYYCARDRPCISSAGTRYHYCVMDVWGQGTTVTVSS VL: not shown	0.443 nM	0.000733 s⁻¹	1.65e+06 M⁻¹ s⁻¹	16 min	2.72 nM	9.5 min	0.316 nM	0.000634 s⁻¹	2e+06 M⁻¹ s⁻¹	18 min	2.52
H1H15253P2 (antibody, V domains shown) VH: EVQLVESGGGLVQPGGSLRLSCVVSGFTSRNYAMSWVRQAPGKGLEWVSAISGSGGSTYYADSVKGRFTISRDNPKNTLYLQMNSLRAEDTALYYCAEDPGTSFDYWGQGTLVTVSS VL: not shown	0.348 nM	0.000124 s⁻¹	356000 M⁻¹ s⁻¹	93 min	–	–	1.44 nM	0.000629 s⁻¹	436000 M⁻¹ s⁻¹	18 min	–
H1H15203P (antibody, V domains shown) VH: EVQLVESGGDLVQPGGSLRVSCAASGFTFSNYDMYWVRQAPGKGLEWVSVISGIGATTYYADSVKGRFTISRDNSKNTVFLQMNSLRAEDTAVYYCVKGGPIVATDYWGQGTLVTVSS VL: not shown	0.273 nM	0.000121 s⁻¹	443000 M⁻¹ s⁻¹	95 min	–	–	0.645 nM	0.000323 s⁻¹	501000 M⁻¹ s⁻¹	36 min	–
H1H15233P2 (antibody, V domains shown) VH: EVQLVESGGGLVQPGGSLRLSCAASGFSFSSYGMNWVRQAPGKGLEWVSAISGRGGNTYSADSVKGRFTISRDNSKNTLFLQMNGLRAEDSAFYYCAKVGTYSSSSPFDYWGQGTLVTVSS VL: not shown	0.229 nM	4.56e-05 s⁻¹	199000 M⁻¹ s⁻¹	253 min	–	–	0.127 nM	4.74e-05 s⁻¹	374000 M⁻¹ s⁻¹	244 min	–

Source: patent US20190351049A1 (Regeneron, published 2019)
